Measurements from paper PMC9788986, “Dynamic chromatin accessibility deploys heterotypic cis/trans-acting factors driving stomatal cell-fate commitment” (Nature Plants, 2022).

T1: His tagged BPC2 (1-279) (A. thaliana, UniProt Q9LDE2 1-279)
T1 chain: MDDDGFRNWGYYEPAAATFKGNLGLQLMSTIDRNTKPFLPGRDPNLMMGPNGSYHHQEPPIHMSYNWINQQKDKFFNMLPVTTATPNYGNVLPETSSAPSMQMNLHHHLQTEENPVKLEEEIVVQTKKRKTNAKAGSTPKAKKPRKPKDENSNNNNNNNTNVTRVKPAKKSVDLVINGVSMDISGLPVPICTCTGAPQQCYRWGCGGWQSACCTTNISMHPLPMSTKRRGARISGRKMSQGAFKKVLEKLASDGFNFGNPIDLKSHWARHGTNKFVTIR

T2: His tagged BPC1 (1-283) (A. thaliana, UniProt Q9SKD0 1-283)
T2 chain: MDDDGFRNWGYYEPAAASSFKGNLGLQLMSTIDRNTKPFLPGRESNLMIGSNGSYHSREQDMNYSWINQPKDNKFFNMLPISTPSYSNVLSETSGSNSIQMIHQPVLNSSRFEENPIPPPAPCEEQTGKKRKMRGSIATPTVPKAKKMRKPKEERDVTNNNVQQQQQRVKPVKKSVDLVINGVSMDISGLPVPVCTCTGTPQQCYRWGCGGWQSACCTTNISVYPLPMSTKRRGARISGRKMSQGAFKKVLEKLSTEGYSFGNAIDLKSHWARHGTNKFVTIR

T3: MUTE-SCRM heterodimer (A. thaliana, UniProt Q9M8K6 1-202; Q9LSE2 1-494)
T3 construct: MUTE, Arabidopsis thaliana, residues 1-202, in pET28a; also called SCRM-MUTE heterodimer; source: E. coli BL21, purified (MUTE: Ni-NTA, gel filtration; SCRM: glutathione resin, thrombin, gel filtration); not shown: GST, N-terminal, cleaved
T3 sequence (looked up) 1: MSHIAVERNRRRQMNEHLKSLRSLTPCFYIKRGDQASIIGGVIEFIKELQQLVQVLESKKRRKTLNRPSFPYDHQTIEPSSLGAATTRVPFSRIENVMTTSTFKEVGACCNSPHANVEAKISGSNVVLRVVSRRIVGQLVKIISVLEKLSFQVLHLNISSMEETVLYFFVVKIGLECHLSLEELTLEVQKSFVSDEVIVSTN
T3 sequence (looked up) 2: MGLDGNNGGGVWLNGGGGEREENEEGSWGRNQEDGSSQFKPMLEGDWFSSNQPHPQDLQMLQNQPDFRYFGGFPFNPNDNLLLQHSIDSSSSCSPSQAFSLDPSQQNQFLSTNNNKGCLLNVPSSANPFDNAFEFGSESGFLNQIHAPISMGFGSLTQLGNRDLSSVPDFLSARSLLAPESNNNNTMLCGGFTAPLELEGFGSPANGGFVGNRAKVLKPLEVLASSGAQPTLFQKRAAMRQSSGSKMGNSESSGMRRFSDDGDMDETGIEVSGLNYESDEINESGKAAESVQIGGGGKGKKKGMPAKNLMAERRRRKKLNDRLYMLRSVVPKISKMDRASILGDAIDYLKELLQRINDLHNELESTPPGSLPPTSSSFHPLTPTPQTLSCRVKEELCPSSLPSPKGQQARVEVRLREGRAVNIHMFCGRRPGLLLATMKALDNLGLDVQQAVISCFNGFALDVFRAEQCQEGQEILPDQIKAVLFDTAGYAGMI


How the values were obtained:
His tagged BPC2 (1-279) = target: T1, His tagged BPC2 (1-279); assay: BLI
His tagged BPC1 (1-283) = target: T2, His tagged BPC1 (1-283); assay: BLI
MUTE-SCRM heterodimer = target: T3, MUTE-SCRM heterodimer; assay: BLI; Octet Red96; Ni-NTA probes loaded with 500 nM His tagged BPC1 or BPC2; heterodimer as analyte at seven concentrations (200 to 3.12 nM by the methods); 30 °C; 1× PBS with 0.02% Tween 20; 1:1 model, Kd by steady-state analysis; conditions: both partners purified

Kd (His tagged BPC2 (1-279)) [nM] | Kd (His tagged BPC1 (1-283)) [nM] | Kd (MUTE-SCRM heterodimer) [nM] | Binder
227 | 126 |  | SPCH-SCRM heterodimer (complex) chain 1: MQEIIPDFLEECEFVDTSLAGDDLFAILESLEGAGEISPTAASTPKDGTTSSKELVKDQDYENSSPKRKKQRLETRKEEDEEEEDGDGEAEEDNKQDGQQKMSHVTVERNRRKQMNEHLTVLRSLMPCFYVKRGDQASIIGGVVEYISELQQVLQSLEAKKQRKTYAEVLSPRVVPSPRPSPPVLSPRKPPLSPRINHHQIHHHLLLPPISPRTPQPTSPYRAIPPQLPLIPQPPLRSYSSLASCSSLGDPPPYSPASSSSSPSVSSNHESSVINELVANSKSALADVEVKFSGANVLLKTVSHKIPGQVMKIIAALEDLALEILQVNINTVDETMLNSFTIKIGIECQLSAEELAQQIQQTFC chain 2: MGLDGNNGGGVWLNGGGGEREENEEGSWGRNQEDGSSQFKPMLEGDWFSSNQPHPQDLQMLQNQPDFRYFGGFPFNPNDNLLLQHSIDSSSSCSPSQAFSLDPSQQNQFLSTNNNKGCLLNVPSSANPFDNAFEFGSESGFLNQIHAPISMGFGSLTQLGNRDLSSVPDFLSARSLLAPESNNNNTMLCGGFTAPLELEGFGSPANGGFVGNRAKVLKPLEVLASSGAQPTLFQKRAAMRQSSGSKMGNSESSGMRRFSDDGDMDETGIEVSGLNYESDEINESGKAAESVQIGGGGKGKKKGMPAKNLMAERRRRKKLNDRLYMLRSVVPKISKMDRASILGDAIDYLKELLQRINDLHNELESTPPGSLPPTSSSFHPLTPTPQTLSCRVKEELCPSSLPSPKGQQARVEVRLREGRAVNIHMFCGRRPGLLLATMKALDNLGLDVQQAVISCFNGFALDVFRAEQCQEGQEILPDQIKAVLFDTAGYAGMI
 |  | 4.8 ± 1.6 | His tagged BPC1 (1-283) (natural protein, A. thaliana, UniProt Q9SKD0 1-283, looked up, BPC1 (BASIC … 1), Arabidopsis thaliana, residues 1-283, in pET28a; source: E. coli BL21, purified (Ni-NTA, gel filtration on Superdex-200); not shown: His tag, N-terminal, kept) MDDDGFRNWGYYEPAAASSFKGNLGLQLMSTIDRNTKPFLPGRESNLMIGSNGSYHSREQDMNYSWINQPKDNKFFNMLPISTPSYSNVLSETSGSNSIQMIHQPVLNSSRFEENPIPPPAPCEEQTGKKRKMRGSIATPTVPKAKKMRKPKEERDVTNNNVQQQQQRVKPVKKSVDLVINGVSMDISGLPVPVCTCTGTPQQCYRWGCGGWQSACCTTNISVYPLPMSTKRRGARISGRKMSQGAFKKVLEKLSTEGYSFGNAIDLKSHWARHGTNKFVTIR
 |  | 11 ± 1.6 | His tagged BPC2 (1-279) (natural protein, A. thaliana, UniProt Q9LDE2 1-279, looked up, BPC2 (BASIC … 2), Arabidopsis thaliana, residues 1-279, in pET28a; source: E. coli BL21, purified (Ni-NTA, gel filtration on Superdex-200); not shown: His tag, N-terminal, kept) MDDDGFRNWGYYEPAAATFKGNLGLQLMSTIDRNTKPFLPGRDPNLMMGPNGSYHHQEPPIHMSYNWINQQKDKFFNMLPVTTATPNYGNVLPETSSAPSMQMNLHHHLQTEENPVKLEEEIVVQTKKRKTNAKAGSTPKAKKPRKPKDENSNNNNNNNTNVTRVKPAKKSVDLVINGVSMDISGLPVPICTCTGAPQQCYRWGCGGWQSACCTTNISMHPLPMSTKRRGARISGRKMSQGAFKKVLEKLASDGFNFGNPIDLKSHWARHGTNKFVTIR
